# Results from patent publication US20220372098A1 (Johns Hopkins, published 2022).
# Substitutions are numbered along the chain they refer to. In names and notes the source's numbering stands.
# B1: yeast-displayed F10 single-chain variable fragment (variant of the 602 scFv) (scFv)
# scFv: EVQLQESGPGLVAPSQSLSITCTVSGFSLTNYDISWIRQPPGKGLEWLGVIWTGGGTNYNSGFMSRLSITKDNSKSQVFLKMNSLQTDDTAIYYCVRQGRSPYWGQGTLVTVSAGGGGSGGGGSGGGGSDIQVTQSPSSLSVSLGDRVTITCKASKDIYNRLAWYQQKPGNAPRLLISGATSLETGVPSRFSGSGSGKDYTLTITSLQTEDVATYYCQQSWDTPYTFGGGTKLEIK
# notes: also called F10 scFv; evolved F10 scFv; not shown: N-terminal Aga2, (G4S)3 linker, 3C and factor Xa cleavage sites; C-terminal c-Myc tag
# B2: yeast-displayed 602 single-chain variable fragment (VH-(G4S)3-VL, fused to Aga2) (scFv)
# scFv: B1 scFv with S101T, S220F, D222G
# notes: not shown: N-terminal Aga2, (G4S)3 linker, 3C and factor Xa cleavage sites; C-terminal c-Myc tag
# B3: human IL-2Rα extracellular domain, soluble, with C-terminal hexahistidine tag (receptor)
# chain: ELCDDDPPEIPHATFKAMAYKEGTMLNCECKRGFRRIKSGSLYMLCTGNSSHSSWDNQCQCTSSATRNTTKQVTPQPEEQKERKTTEMQSPMQPVDQASLPGHCREPPPWENEATERIYHFVVGQMVYYQCVQGYRALHRGPAESVCKMTHGKTRWTQPQLICTGEMETSQFPGEEKPQASPEGRPESETSCLVTTTDFQIQTEMAATMETSIFTTEYQHHHHHH
# notes: extracellular domain; also called soluble IL-2Rα
# B4: recombinant 602 antibody (anti-human IL-2), mouse IgG2a kappa (antibody, V domains shown)
# VH: EVQLQESGPGLVAPSQSLSITCTVSGFSLTNYDISWIRQPPGKGLEWLGVIWTGGGTNYNSGFMSRLSITKDNSKSQVFLKMNSLQTDDTAIYYCVRQGRTPYWGQGTLVTVSA
# VL: DIQVTQSPSSLSVSLGDRVTITCKASKDIYNRLAWYQQKPGNAPRLLISGATSLETGVPSRFSGSGSGKDYTLTITSLQTEDVATYYCQQFWGTPYTFGGGTKLEIKR
# notes: They are built here from the component entries so that the signal peptides are left out; also called MAB602
# Tests used:
# [1] = target: T1, biotinylated human IL-2 with C-terminal biotin acceptor peptide (human, UniProt P60568 21-153, biotinylated with BirA ligase on the C-terminal biotin acceptor peptide); experiment: flow cytometry on yeast displaying the scFv, 5 nM soluble biotinylated IL-2 co-incubated with soluble IL-2Rα
# T1 construct: Immobilized on streptavidin tips in BLI and used as the soluble labelled ligand in the yeast display assays; also called biotinylated hIL-2; immobilized hIL-2
# Method: (§1) Cells were then washed and stained with a 1:200 dilution of AlexaFluor 647-complexed streptavidin (Thermo Fisher Scientific) in PBSA for 15 minutes at 4° C. After a final wash, cells were analyzed for target binding using a CytoFLEX flow cytometer (Beckman Coulter). Background-subtracted and normalized binding curves were fitted to a first-order binding model and equilibrium dissociation constant (KD) values were determined using GraphPad Prism software.
# [2] = target: T1, biotinylated human IL-2 with C-terminal …; experiment: flow cytometry, titration of soluble biotinylated IL-2 on yeast displaying the scFv, streptavidin-AF647 detection
# Method: as §1
# [3] = target: T1, biotinylated human IL-2 with C-terminal …; experiment: flow cytometry competition: soluble IL-2Rα titrated against 5 nM biotinylated IL-2; competitor is the yeast-displayed F10 scFv
# [4] = target: T1, biotinylated human IL-2 with C-terminal …; experiment: flow cytometry competition: soluble IL-2Rα titrated against 10 nM biotinylated IL-2; competitor is the yeast-displayed 602 scFv
# [5] = target: T1, biotinylated human IL-2 with C-terminal …; experiment: bio-layer interferometry (Octet), equilibrium titration on immobilized hIL-2
binder,measurement,setting,value
B1,binding result,[1],binds
B2,EC50 (read off the curve),[2],~10 nM
B3,IC50 (read off the curve),[3],~300 nM
same,IC50 (read off the curve),[4],~60 nM
B4,Kd,[5],3.5 nM
